Patent US20160250313A1 (GlaxoSmithKline, published 2016)

Target: T1, Vitronectin from human plasma, SIGMA-ALDRICH (human, UniProt P04004 20-478)
T1 construct: mature
Experiment: ELISA, fusion protein coated at 10 ug/ml, vitronectin from 10 ug/ml in two-fold dilutions, detected with peroxidase sheep anti-human vitronectin

T1 sequence (P04004 20-478): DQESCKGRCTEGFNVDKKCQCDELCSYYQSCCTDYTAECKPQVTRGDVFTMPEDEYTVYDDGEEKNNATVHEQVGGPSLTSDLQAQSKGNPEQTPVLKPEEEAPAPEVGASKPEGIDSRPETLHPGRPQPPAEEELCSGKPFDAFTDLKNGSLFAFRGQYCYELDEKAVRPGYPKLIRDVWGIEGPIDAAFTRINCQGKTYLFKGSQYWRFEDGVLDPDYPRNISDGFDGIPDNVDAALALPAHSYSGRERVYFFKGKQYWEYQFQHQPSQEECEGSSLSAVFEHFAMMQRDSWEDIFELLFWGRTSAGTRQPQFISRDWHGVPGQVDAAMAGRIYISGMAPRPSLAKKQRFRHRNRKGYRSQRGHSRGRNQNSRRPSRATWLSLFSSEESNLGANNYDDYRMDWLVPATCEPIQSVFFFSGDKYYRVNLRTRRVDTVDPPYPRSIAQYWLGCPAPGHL

B1: purified LVL317 PE-PilA fusion protein (other)
chain: QIQKAEQNDVKLAPPTDVRSGYIRLVKNVNYYIDSESIWVDNQEPQIVHFDAVVNLDKGLYVYPEPKRYARSVRQYKILNCANYHLTQVRTDFYDEFWGQGLRAAPKKQKKHTLSLTPDTTLYNAAQIICANYGEAFSVDKKGGTKKAAVSELLQASAPYKADVELCVYSTNETTNCTGGKNGIAADITTAKGYVKSVTTSNGAITVKGDGTLANMEYILQATGNAATGVTWTTTCKGTDASLFPANFCGSVTQ
notes: Coated on microtiter plates at 10 ug/ml; also called PE-PilA fusion non His-tagged protein
Question: Does B1 bind?
Answer: binds
